Where a SMILES comes first, the peptide text is derived from it. Where no end group is shown, it is not given here. [ ]: non-standard residue; d: D form. NMeY = CN[C@@H](Cc1ccc(O)cc1)C(=O)O; NMeL = CN[C@@H](CC(C)C)C(=O)O
Tests used:
[1] = target: T1, HPV-16 E7 protein binding to the RBG protein (Homo sapiens, UniProt P06400); assay: HPV-16 E7 protein binding assay described by R.E. Jones et al.; conditions: lowest concentration stated to inhibit
T1 sequence (P06400 1-928): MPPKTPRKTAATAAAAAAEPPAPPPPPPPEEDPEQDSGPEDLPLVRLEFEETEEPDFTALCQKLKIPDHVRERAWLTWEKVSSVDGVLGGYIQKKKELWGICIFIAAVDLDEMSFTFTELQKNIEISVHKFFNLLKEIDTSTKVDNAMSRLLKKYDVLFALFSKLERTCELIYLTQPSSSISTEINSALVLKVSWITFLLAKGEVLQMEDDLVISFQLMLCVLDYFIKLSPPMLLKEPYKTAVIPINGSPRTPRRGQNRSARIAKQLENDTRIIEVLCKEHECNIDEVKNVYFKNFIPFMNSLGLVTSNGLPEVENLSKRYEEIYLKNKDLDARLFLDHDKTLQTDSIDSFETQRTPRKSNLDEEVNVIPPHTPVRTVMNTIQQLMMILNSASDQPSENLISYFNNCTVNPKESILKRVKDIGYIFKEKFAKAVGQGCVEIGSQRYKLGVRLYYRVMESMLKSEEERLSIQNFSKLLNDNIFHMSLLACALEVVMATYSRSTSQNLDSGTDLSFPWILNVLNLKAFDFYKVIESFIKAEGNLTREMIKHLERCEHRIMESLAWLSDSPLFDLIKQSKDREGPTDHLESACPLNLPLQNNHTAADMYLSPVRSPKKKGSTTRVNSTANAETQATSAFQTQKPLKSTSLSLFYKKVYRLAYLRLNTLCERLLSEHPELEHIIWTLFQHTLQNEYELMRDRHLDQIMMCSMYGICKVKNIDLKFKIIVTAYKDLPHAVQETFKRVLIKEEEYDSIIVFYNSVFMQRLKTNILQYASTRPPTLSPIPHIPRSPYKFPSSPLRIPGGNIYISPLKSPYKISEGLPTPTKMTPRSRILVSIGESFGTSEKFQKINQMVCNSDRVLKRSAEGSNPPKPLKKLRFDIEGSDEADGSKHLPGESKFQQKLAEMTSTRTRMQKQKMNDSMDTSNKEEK
Description: Peptides D and E were examined in the HPV-16 E7 protein binding assay described by R.E. Jones et al., The Journal of Biological Chemistry, Vol 265:12782-12785, 1990. This assay measures the binding of the E7 protein to the RBG protein. Peptides D and E inhibited HPV-16 E7 protein binding to the RBG protein at concentrations of Peptide D as low as 20nM and at concentrations of Peptide E as low as 2nM. […] Additionally, Peptide D and Peptide E are themselves antagonists of the HPV E7 protein binding to the RBG protein.

[2] = target: T1, HPV-16 E7 protein binding to the RBG protein; assay: Binding inhibition assay by immune precipitation (Example 2; Hela cell lysate plus radiolabeled E7 from rabbit reticulocyte lysate); set-up: Whole cell lysates of Hela cells were used as a source of human RBG protein; endogenous in cells; host or cells: HeLa whole cell lysate (RB); rabbit reticulocyte lysate, T7 promoter clone (E7)
Description: Peptide A, Peptide B, and Acetyl-GRP 20-27 were assayed for their abilities to inhibit the binding of the HPV-16 E7 protein to the RBG protein. Binding inhibition assays were carried out in vitro using a modification of the procedure described by N. Dyson et al., Science 243: 934-936 1989. Whole cell lysates of Hela cells were used as a source of human RBG protein. Rabbit reticulocyte cell free lysates that permit transcription and translation of exogenously added DNAs served as a source of HPV-16 E7 protein. The HPV-16 E7 gene was added to the rabbit reticulocyte lysate as a recombinant DNA clone under the control of a T7 promoter and incubated for 60 minutes at 30°C in the presence of radiolabeled methionine to allow transcription of the HPV-16 E7 gene and translation into E7 protein that contained radiolabeled methionine. The Hela cell and rabbit reticulocyte lysates were then mixed and incubated at 4°C for 90 minutes. After further manipulations a murine antibody against the RBG protein was added and incubated at 4°C for 60 minutes. Next, a rabbit anti-mouse IgG antibody and protein A sepharose was added to the reaction mixture in order to immune precipitate the RBG protein. At the same time, the E7 protein that was bound to the RBG protein was also precipitated. […] This biochemical protocol yields a quantitative estimate of the binding of HPV-16 E7 protein to the RBG protein in vitro. […]

RBG Protein/E7 = target: T2, RBG Protein/E7 (Homo sapiens, UniProt P06400); assay: E7/RB plate binding assay (recombinant E7 on plate, 35S-labeled RBG protein); conditions: average of at least two experiments, triplicate; read-out: PLATE ASSAY RBG Protein/E7 IC₅₀
T2 construct: made in house; host or cells: rabbit reticulocyte lysate (in vitro translation of RB)
T2 sequence (P06400 1-928): T1 sequence (P06400 1-928)
Description: (§1) An in vitro solution assay used for the detection of complex formation between E7 protein and p105-RB has been described by Dyson, et. al. (30). Cell lysates used as source of RBG protein were prepared from human T24 bladder carcinoma cells as described (30). C36 and the control antibody Pb416 are monoclonal antibodies directed against RGB protein and SV40 large T protein, respectively. These antibodies were a generous gift from E. Harlow (Cold Spring Harbor Laboratories, Cold Spring Harbor, NY). Immunoprecipitates of E7/RGB protein binding reactions containing serially diluted peptide antagonists were dissolved in 35 µl gel loasing buffer (30). Five µl was counted directly in Right Safe (Beckan, Palo Alto, CA.) scintillation cocktail and 25 µl was subjected to sodium dodecyl sulphate poly-acrylamide gel electrophoresis. Gels were dried and exposed to Kodak X-AR film at -70°C overnight. In order to more rapidly assay large numbers of samples and more easily quantitate the binding results, we developed a plate binding asszy for the detection of E7/RGB protein association. Purified recombinant E7 was resuspended in 0.1 M sodium carbonate, pH 9.5, at 1 ng/µl. Fifty microliters of this solution was placed inot each well of a polyvinyl chloride micortiter plate (COSTAR 2596, Cambridge, MA.). The plate was gently agitated for 18 hours at 4°C. The E7 solution was aspirated off and 100 µl of plate blocking buffer (PBB) [50mM Hepes 7.0, 250mM sodium chloride, 0.1% NP40, 0.5% (w/v) pigskin gelatin, and 0.02% sodium azide] was added pwe well. The buffer was removed and the plate was washed three times in the above buffer without the gelatin (PB). five femtomoles of ³⁵S-methionine (Amersham 100 Ci/mmole, Arlington Heights, IL.) labeled RBG protein prepared in a rabbit reticulocyte lysate was diluted in PB buffer containing various peptide antagonists to a final volume of 50 µl and added to the E7 treated plate. The plate was agsin incubated at 4°C with agitation for 1 hour after which the solution was aspirated and each well washed five times with PB. The top of the plate was removed using a hot wire cutting apparatus (D. Lee, Sunnyvale, CA). Each well eas placed in 3 ml of Ready Safe scintillation cocktail (Beckman, Palo Alto, CA.) and counted for one minute. • 30. Dyson, N. Duffy, L.A., and Harlow, E. (1989) Cancer Cells 7, 235-240 • 31. Merrifield, R.B. (1963) J. Am. Chem. Soc. 85, 2149-2154 • 32. Sakakibara, S., Shimonishi, Y., Kishida, Y., Okada, M., and Sugihara, H. (1967) Bull. Chem. Soc. Japan 40, 2164-2167 • 33. Rivier, J., McClentock, R., and Anderson, H. (1984) J. Chromatogr. 288, 303-328
(§2) IC ₅₀ values represent the average of at least two experiments in which each concentration of inhibitor was tested in triplicate. The varition between experiments was less than 10%. The 50% inhibition concentration are micromolar. ND = not determined. [formula] [formula] [formula] [formula]

[3] = target: T3, RBG Protein/E7 (complex formation between E7 protein and p105-RB) (Homo sapiens, UniProt P06400); assay: E7/RB solution assay (immunoprecipitation, T24 cell lysates as source of RBG protein); format: binding; conditions: average of at least two experiments, triplicate; read-out: SOLUTION ASSAY RBG Protein/E7 IC₅₀
T3 construct: Cell lysates used as source of RBG protein were prepared from human T24 bladder carcinoma cells; endogenous in cells; host or cells: human T24 bladder carcinoma cells (whole cell lysate)
T3 sequence (P06400 1-928): T1 sequence (P06400 1-928)
Description: as §1, §2

Compound	IC50 (RBG Protein/E7) [nM]	IC50 [3] [µM]	further results
CC(=O)N[C@@H](CC(=O)O)C(=O)N(C)[C@@H](CC(C)C)C(=O)N[C@@H](Cc1ccc(O)cc1)C(=O)N[C@@H](CS)C(=O)N(C)[C@@H](Cc1ccc(O)cc1)C(=O)N[C@@H](CCC(=O)O)C(=O)N[C@@H](CCC(N)=O)C(=O)N(C)[C@@H](CC(C)C)C(=O)N[C@@H](CC(N)=O)C(N)=O [Peptide E] (Ac-D[NMeL]YC[NMeY]EQ[NMeL]N-NH2)			inhibited HPV-16 E7 protein binding to the RBG protein at concentrations as low as [1]: 2 nM
Ac-DLYCYEQLN-NH2 [Peptide D]			inhibited HPV-16 E7 protein binding to the RBG protein at concentrations as low as [1]: 20 nM
Ac-LYCYEQLNDSS-NH2 [Peptide C]			inhibited HPV-16 E7 protein binding to the RBG protein at concentrations as low as ([2]; lowest concentration stated to inhibit): 1 µM
Acetyl-GRP 20-27: last eight amino acid residues of the human gastrin releasing peptide, unrelated to the HPV E7 protein			effect on HPV-16 E7 protein binding to the RBG protein ([2]; concentrations up to 60 uM): no effect
E7-(14-29)-AMIDE (DLQPETTDLYCYEQLN-NH2; UniProt P03129 14-29, looked up, fragment) [Peptide 7]	80		
E7-(18-29)-AMIDE (ETTDLYCYEQLN-NH2; UniProt P03129 18-29, looked up, fragment) [Peptide 8]	60	0.4	
E7-(20-32)-AMIDE (TDLYCYEQLNDSS-NH2; UniProt P03129 20-32, looked up, fragment) [Peptide 1]	50	1	
E7-(21)32)-AMIDE (DLYCYEQLNDSS-NH2; UniProt P03129 21-32, looked up, fragment) [Peptide 10]	11400	20	
TDLFCYEQLN-NH2 [Peptide 19, [Phe²³]-E7-(20-29)-AMIDE]	60		
[ABU²⁴]-E7-(20-32)-AMIDE [Peptide 17]		20	
[ACM²⁴]-E7-(20-32)-AMIDE [Peptide 18]		> 100	
[G1n27]]-E7-(20-27)-AMIDE (TDLYCYEQ-NH2; UniProt P03129 20-27, looked up, fragment) [Peptide 5]	9100	50	
[Ser²⁴]-E7-(20-32)-AMIDE (TDLYSYEQLNDSS-NH2; UniProt P03129 20-32, looked up, variant C24S) [Peptide 16]		40	
